The source of these data is paper PMC10849588.

In this assay the target is GMPCPP-stabilized, fluorescently labeled, biotinylated microtubules (untreated) (UniProt P02550).

With “wild-type full-length Cin8, GFP- and 6x His-tagged (from UniProt P27895 1-1000) (natural protein)”, the % of (+)-end movements, Clusters, 110 mM KCl came out at 41%; the % of (+)-end movements, Monomers (single molecules), 110 mM KCl worked out at 29%; the % of total runs >60 s, Monomers (single molecules), 110 mM KCl stood at 17%.
